B1: HLA class I histocompatibility antigen, alpha chain G (Homo sapiens), P17693-2 (parent)
chain: MVVMAPRTLFLLLSGALTLTETWAGSHSMRYFSAAVSRPGRGEPRFIAMGYVDDTQFVRFDSDSACPRMEPRAPWVEQEGPEYWEEETRNTKAHAQTDRMNLQTLRGYYNQSEANPPKTHVTHHPVFDYEATLRCWALGFYPAEIILTWQRDGEDQTQDVELVETRPAGDGTFQKWAAVVVPSGEEQRYTCHVQHEGLPEPLMLRWKQSSLPTIPIMGIVAGLVVLAAVVTGAAVAAVLWRKKSSD

Variants of: B1
Details: with lirb2_human LILRB2, Q8N423
lirb2_human LILRB2, Q8N423, sequence (Q8N423 whole entry): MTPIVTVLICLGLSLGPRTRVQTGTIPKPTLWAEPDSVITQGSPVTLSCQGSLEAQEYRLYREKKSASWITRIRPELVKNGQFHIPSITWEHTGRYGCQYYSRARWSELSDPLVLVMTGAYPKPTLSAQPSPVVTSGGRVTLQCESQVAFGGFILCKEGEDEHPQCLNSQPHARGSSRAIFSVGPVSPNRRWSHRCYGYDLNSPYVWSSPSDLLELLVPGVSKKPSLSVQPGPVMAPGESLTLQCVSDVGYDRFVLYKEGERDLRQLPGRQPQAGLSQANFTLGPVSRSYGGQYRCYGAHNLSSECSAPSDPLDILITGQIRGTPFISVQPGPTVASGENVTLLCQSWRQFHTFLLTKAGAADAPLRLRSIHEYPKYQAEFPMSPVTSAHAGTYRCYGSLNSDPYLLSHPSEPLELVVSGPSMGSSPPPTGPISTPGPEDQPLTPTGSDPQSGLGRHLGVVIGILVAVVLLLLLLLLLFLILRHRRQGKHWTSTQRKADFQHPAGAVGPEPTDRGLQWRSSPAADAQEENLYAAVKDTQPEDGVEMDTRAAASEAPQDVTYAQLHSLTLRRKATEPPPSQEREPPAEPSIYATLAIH

effect of a mutation on the interaction | Variant
with no effect | MVVMAPRTLFLLLSGALTLTETWAGSHSMRYFSAAVSRPGRGEPRFIAMGYVDDTQFVRFDSDSASPRMEPRAPWVEQEGPEYWEEETRNTKAHAQTDRMNLQTLRGYYNQSEANPPKTHVTHHPVFDYEATLRCWALGFYPAEIILTWQRDGEDQTQDVELVETRPAGDGTFQKWAAVVVPSGEEQRYTCHVQHEGLPEPLMLRWKQSSLPTIPIMGIVAGLVVLAAVVTGAAVAAVLWRKKSSD [C66S]

From IntAct's records for PubMed 28348268
